The record followed here is patent US20090269277A1.

Broadly, the Kd is a measure of binding affinity in units of concentration.

The target of experiment [1] is CEA (UniProt P06731). Description: SE-HPLC of 125I-TF2 mixed with a 20-fold molar excess of CEA.
Experiment [2] has as its target recombinant human RIIalpha (commercial sample) (human) (UniProt P13861). As to the kind of experiment: equilibrium SE-HPLC.

recombinant human RIIalpha (commercial sample) (human), sequence (P13861 whole entry): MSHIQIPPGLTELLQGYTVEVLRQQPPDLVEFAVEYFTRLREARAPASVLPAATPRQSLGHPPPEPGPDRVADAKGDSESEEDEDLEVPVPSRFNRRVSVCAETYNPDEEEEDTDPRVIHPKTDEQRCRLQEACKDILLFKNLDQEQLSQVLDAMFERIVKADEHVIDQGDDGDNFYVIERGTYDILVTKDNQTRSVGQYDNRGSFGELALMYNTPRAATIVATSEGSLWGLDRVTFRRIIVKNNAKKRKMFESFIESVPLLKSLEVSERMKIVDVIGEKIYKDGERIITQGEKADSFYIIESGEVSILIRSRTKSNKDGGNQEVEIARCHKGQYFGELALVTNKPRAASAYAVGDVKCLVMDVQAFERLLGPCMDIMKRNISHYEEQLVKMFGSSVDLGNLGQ
CEA, sequence (P06731 35-685 limits assumed): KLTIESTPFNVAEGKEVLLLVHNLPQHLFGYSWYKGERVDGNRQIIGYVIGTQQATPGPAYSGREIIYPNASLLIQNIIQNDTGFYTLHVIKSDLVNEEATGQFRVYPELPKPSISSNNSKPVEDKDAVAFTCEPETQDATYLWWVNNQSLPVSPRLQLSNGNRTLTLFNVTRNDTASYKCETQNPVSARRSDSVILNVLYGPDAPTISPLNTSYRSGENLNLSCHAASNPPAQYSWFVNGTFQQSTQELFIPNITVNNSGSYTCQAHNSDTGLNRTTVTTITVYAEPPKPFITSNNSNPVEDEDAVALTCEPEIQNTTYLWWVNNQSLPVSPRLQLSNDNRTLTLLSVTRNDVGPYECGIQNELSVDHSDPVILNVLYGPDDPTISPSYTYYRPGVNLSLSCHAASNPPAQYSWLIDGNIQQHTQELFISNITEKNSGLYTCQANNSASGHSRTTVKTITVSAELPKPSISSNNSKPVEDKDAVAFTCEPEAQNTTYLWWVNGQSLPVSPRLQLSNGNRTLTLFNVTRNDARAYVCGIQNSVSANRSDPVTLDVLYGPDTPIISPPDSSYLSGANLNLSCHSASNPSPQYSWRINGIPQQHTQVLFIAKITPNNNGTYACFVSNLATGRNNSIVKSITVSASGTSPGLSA

On to TF2 (bispecific antibody), for which, in experiment [1], the percent of labeled TF2 shifted to a high molecular weight species was 95%. On to PKSCGGGGSGGGGSGGGGSQIEYLAKQIVDNAIQQA (Fab, part only; not given: h679 Fd and light chain, part only) [h679-Fab-AD1], for which the Kd in experiment [2] is 30 nM.
